Each block holds one binder with its values, some of them ahead of it.
Target: T1, AXL Ig1 domain fused to human Fc (Homo sapiens, UniProt P30530)
T1 construct: AXL receptor tyrosine kinase, human, Ig1 domain of the extracellular domain; Construct limits and production are in the Supplementary Information; also called AXL Ig1-Fc; AXL-Ig1-Fc
Assay: BLI; Octet RED96; His-tagged scFv-osmY captured on Ni-NTA tips from undiluted bacterial supernatant (600 s); AXL Ig1 domain Fc 5.6 ug/ml in kinetic buffer (0.02% Tween 20, 0.05% sodium azide, 0.1% BSA in PBS) as analyte; rat Axl-Fc as control; traces scored by eye (normal, fast, very fast, weak, weak fast, none)
Details: one partner purified

B2: tilvestamab scFv-osmY F33S (scFv, V domains shown)
VH: EVQLVESGGGLVQPGGSLRLSCAASGYSFTDSYINWVRQAPGKGLEWVARIFPGGDNTYYNEKFKGRFTLSADTSKSTAYLQMNSLRAEDTAVYYCARRGLYYAMDYWGQGTLVTVSS
VL: DIQMTQSPSSLSASVGDRVTITCRSSQSLVHSNGIPYLHWYQQKPGKAPKLLIYRVSNRFSGVPSRFSGSGSGTDFTLTISSLQPEDFATYYCSQGTHVPPTFGQGTKVEIK
notes: VH of tilvestamab, as the VH of m1; numbers count on: the scFv-osmY fusion protein; linker; VL of tilvestamab, as the VL of m1; source: E. coli T7 expression strain, secreted, culture supernatant used directly; not shown: His6, C-terminal, kept
binding result: binds

B3: tilvestamab scFv-osmY G101A (scFv, V domains shown)
VH: EVQLVESGGGLVQPGGSLRLSCAASGYSFTDFYINWVRQAPGKGLEWVARIFPGGDNTYYNEKFKGRFTLSADTSKSTAYLQMNSLRAEDTAVYYCARRALYYAMDYWGQGTLVTVSS
VL: DIQMTQSPSSLSASVGDRVTITCRSSQSLVHSNGIPYLHWYQQKPGKAPKLLIYRVSNRFSGVPSRFSGSGSGTDFTLTISSLQPEDFATYYCSQGTHVPPTFGQGTKVEIK
notes: as for B2
binding result: binds

B4: tilvestamab scFv-osmY L102S (scFv, V domains shown)
VH: EVQLVESGGGLVQPGGSLRLSCAASGYSFTDFYINWVRQAPGKGLEWVARIFPGGDNTYYNEKFKGRFTLSADTSKSTAYLQMNSLRAEDTAVYYCARRGSYYAMDYWGQGTLVTVSS
VL: DIQMTQSPSSLSASVGDRVTITCRSSQSLVHSNGIPYLHWYQQKPGKAPKLLIYRVSNRFSGVPSRFSGSGSGTDFTLTISSLQPEDFATYYCSQGTHVPPTFGQGTKVEIK
notes: as for B2
binding result: binds

B6: tilvestamab scFv-osmY G233A (scFv, V domains shown)
VH: EVQLVESGGGLVQPGGSLRLSCAASGYSFTDFYINWVRQAPGKGLEWVARIFPGGDNTYYNEKFKGRFTLSADTSKSTAYLQMNSLRAEDTAVYYCARRGLYYAMDYWGQGTLVTVSS
VL: DIQMTQSPSSLSASVGDRVTITCRSSQSLVHSNGIPYLHWYQQKPGKAPKLLIYRVSNRFSGVPSRFSGSGSGTDFTLTISSLQPEDFATYYCSQATHVPPTFGQGTKVEIK
notes: VH of tilvestamab, as the VH of m1; linker; VL of tilvestamab, as the VL of m1; numbers count on: the scFv-osmY fusion protein; source: E. coli T7 expression strain, secreted, culture supernatant used directly; not shown: His6, C-terminal, kept
binding result: binds

B8: tilvestamab scFv-osmY F33A (scFv, V domains shown)
VH: EVQLVESGGGLVQPGGSLRLSCAASGYSFTDAYINWVRQAPGKGLEWVARIFPGGDNTYYNEKFKGRFTLSADTSKSTAYLQMNSLRAEDTAVYYCARRGLYYAMDYWGQGTLVTVSS
VL: DIQMTQSPSSLSASVGDRVTITCRSSQSLVHSNGIPYLHWYQQKPGKAPKLLIYRVSNRFSGVPSRFSGSGSGTDFTLTISSLQPEDFATYYCSQGTHVPPTFGQGTKVEIK
notes: as for B2
binding result: binds

B10: tilvestamab scFv-osmY Y103A (scFv, V domains shown)
VH: EVQLVESGGGLVQPGGSLRLSCAASGYSFTDFYINWVRQAPGKGLEWVARIFPGGDNTYYNEKFKGRFTLSADTSKSTAYLQMNSLRAEDTAVYYCARRGLAYAMDYWGQGTLVTVSS
VL: DIQMTQSPSSLSASVGDRVTITCRSSQSLVHSNGIPYLHWYQQKPGKAPKLLIYRVSNRFSGVPSRFSGSGSGTDFTLTISSLQPEDFATYYCSQGTHVPPTFGQGTKVEIK
notes: as for B2
binding result: binds

B12: tilvestamab scFv-osmY Y103S (scFv, V domains shown)
VH: EVQLVESGGGLVQPGGSLRLSCAASGYSFTDFYINWVRQAPGKGLEWVARIFPGGDNTYYNEKFKGRFTLSADTSKSTAYLQMNSLRAEDTAVYYCARRGLSYAMDYWGQGTLVTVSS
VL: DIQMTQSPSSLSASVGDRVTITCRSSQSLVHSNGIPYLHWYQQKPGKAPKLLIYRVSNRFSGVPSRFSGSGSGTDFTLTISSLQPEDFATYYCSQGTHVPPTFGQGTKVEIK
notes: as for B2
binding result: binds

B15: tilvestamab scFv-osmY D32A (scFv, V domains shown)
VH: EVQLVESGGGLVQPGGSLRLSCAASGYSFTAFYINWVRQAPGKGLEWVARIFPGGDNTYYNEKFKGRFTLSADTSKSTAYLQMNSLRAEDTAVYYCARRGLYYAMDYWGQGTLVTVSS
VL: DIQMTQSPSSLSASVGDRVTITCRSSQSLVHSNGIPYLHWYQQKPGKAPKLLIYRVSNRFSGVPSRFSGSGSGTDFTLTISSLQPEDFATYYCSQGTHVPPTFGQGTKVEIK
notes: as for B2
binding result: binds

B16: tilvestamab scFv-osmY F53A (scFv, V domains shown)
VH: EVQLVESGGGLVQPGGSLRLSCAASGYSFTDFYINWVRQAPGKGLEWVARIAPGGDNTYYNEKFKGRFTLSADTSKSTAYLQMNSLRAEDTAVYYCARRGLYYAMDYWGQGTLVTVSS
VL: DIQMTQSPSSLSASVGDRVTITCRSSQSLVHSNGIPYLHWYQQKPGKAPKLLIYRVSNRFSGVPSRFSGSGSGTDFTLTISSLQPEDFATYYCSQGTHVPPTFGQGTKVEIK
notes: as for B2
binding result: binds

Second part, the binder after the results:

binding result: binds
B1: parental tilvestamab scFv-osmY fusion protein (scFv, V domains shown)
VH: EVQLVESGGGLVQPGGSLRLSCAASGYSFTDFYINWVRQAPGKGLEWVARIFPGGDNTYYNEKFKGRFTLSADTSKSTAYLQMNSLRAEDTAVYYCARRGLYYAMDYWGQGTLVTVSS
VL: DIQMTQSPSSLSASVGDRVTITCRSSQSLVHSNGIPYLHWYQQKPGKAPKLLIYRVSNRFSGVPSRFSGSGSGTDFTLTISSLQPEDFATYYCSQGTHVPPTFGQGTKVEIK
notes: VH of tilvestamab (BGB149); numbers count on: the scFv-osmY fusion protein; linker between VH and VL, adapted from the vector pOPE101; VL of tilvestamab (BGB149); About 52 kDa; vector pET-22b(+); also called parental scFv-osmY; parental scFv; source: E. coli T7 expression strain, secreted, culture supernatant used directly; not shown: His6, C-terminal, kept

binding result: binds
B5: tilvestamab scFv-osmY F33Y (scFv, V domains shown)
VH: EVQLVESGGGLVQPGGSLRLSCAASGYSFTDYYINWVRQAPGKGLEWVARIFPGGDNTYYNEKFKGRFTLSADTSKSTAYLQMNSLRAEDTAVYYCARRGLYYAMDYWGQGTLVTVSS
VL: DIQMTQSPSSLSASVGDRVTITCRSSQSLVHSNGIPYLHWYQQKPGKAPKLLIYRVSNRFSGVPSRFSGSGSGTDFTLTISSLQPEDFATYYCSQGTHVPPTFGQGTKVEIK
notes: as for B2

binding result: binds
B7: tilvestamab scFv-osmY N195A (scFv, V domains shown)
VH: EVQLVESGGGLVQPGGSLRLSCAASGYSFTDFYINWVRQAPGKGLEWVARIFPGGDNTYYNEKFKGRFTLSADTSKSTAYLQMNSLRAEDTAVYYCARRGLYYAMDYWGQGTLVTVSS
VL: DIQMTQSPSSLSASVGDRVTITCRSSQSLVHSNGIPYLHWYQQKPGKAPKLLIYRVSARFSGVPSRFSGSGSGTDFTLTISSLQPEDFATYYCSQGTHVPPTFGQGTKVEIK
notes: as for B6

binding result: binds
B9: tilvestamab scFv-osmY M106A (scFv, V domains shown)
VH: EVQLVESGGGLVQPGGSLRLSCAASGYSFTDFYINWVRQAPGKGLEWVARIFPGGDNTYYNEKFKGRFTLSADTSKSTAYLQMNSLRAEDTAVYYCARRGLYYAADYWGQGTLVTVSS
VL: DIQMTQSPSSLSASVGDRVTITCRSSQSLVHSNGIPYLHWYQQKPGKAPKLLIYRVSNRFSGVPSRFSGSGSGTDFTLTISSLQPEDFATYYCSQGTHVPPTFGQGTKVEIK
notes: as for B2

binding result: binds
B11: tilvestamab scFv-osmY L102T (scFv, V domains shown)
VH: EVQLVESGGGLVQPGGSLRLSCAASGYSFTDFYINWVRQAPGKGLEWVARIFPGGDNTYYNEKFKGRFTLSADTSKSTAYLQMNSLRAEDTAVYYCARRGTYYAMDYWGQGTLVTVSS
VL: DIQMTQSPSSLSASVGDRVTITCRSSQSLVHSNGIPYLHWYQQKPGKAPKLLIYRVSNRFSGVPSRFSGSGSGTDFTLTISSLQPEDFATYYCSQGTHVPPTFGQGTKVEIK
notes: as for B2

binding result: binds
B13: tilvestamab scFv-osmY Y108A (scFv, V domains shown)
VH: EVQLVESGGGLVQPGGSLRLSCAASGYSFTDFYINWVRQAPGKGLEWVARIFPGGDNTYYNEKFKGRFTLSADTSKSTAYLQMNSLRAEDTAVYYCARRGLYYAMDAWGQGTLVTVSS
VL: DIQMTQSPSSLSASVGDRVTITCRSSQSLVHSNGIPYLHWYQQKPGKAPKLLIYRVSNRFSGVPSRFSGSGSGTDFTLTISSLQPEDFATYYCSQGTHVPPTFGQGTKVEIK
notes: as for B2

binding result: binds
B14: tilvestamab scFv-osmY T31A (scFv, V domains shown)
VH: EVQLVESGGGLVQPGGSLRLSCAASGYSFADFYINWVRQAPGKGLEWVARIFPGGDNTYYNEKFKGRFTLSADTSKSTAYLQMNSLRAEDTAVYYCARRGLYYAMDYWGQGTLVTVSS
VL: DIQMTQSPSSLSASVGDRVTITCRSSQSLVHSNGIPYLHWYQQKPGKAPKLLIYRVSNRFSGVPSRFSGSGSGTDFTLTISSLQPEDFATYYCSQGTHVPPTFGQGTKVEIK
notes: as for B2

binding result: binds
B17: tilvestamab scFv-osmY L102A (scFv, V domains shown)
VH: EVQLVESGGGLVQPGGSLRLSCAASGYSFTDFYINWVRQAPGKGLEWVARIFPGGDNTYYNEKFKGRFTLSADTSKSTAYLQMNSLRAEDTAVYYCARRGAYYAMDYWGQGTLVTVSS
VL: DIQMTQSPSSLSASVGDRVTITCRSSQSLVHSNGIPYLHWYQQKPGKAPKLLIYRVSNRFSGVPSRFSGSGSGTDFTLTISSLQPEDFATYYCSQGTHVPPTFGQGTKVEIK
notes: as for B2

binding result: binds
B18: tilvestamab scFv-osmY I35A (scFv, V domains shown)
VH: EVQLVESGGGLVQPGGSLRLSCAASGYSFTDFYANWVRQAPGKGLEWVARIFPGGDNTYYNEKFKGRFTLSADTSKSTAYLQMNSLRAEDTAVYYCARRGLYYAMDYWGQGTLVTVSS
VL: DIQMTQSPSSLSASVGDRVTITCRSSQSLVHSNGIPYLHWYQQKPGKAPKLLIYRVSNRFSGVPSRFSGSGSGTDFTLTISSLQPEDFATYYCSQGTHVPPTFGQGTKVEIK
notes: as for B2

binding result: binds
B19: tilvestamab scFv-osmY G233S (scFv, V domains shown)
VH: EVQLVESGGGLVQPGGSLRLSCAASGYSFTDFYINWVRQAPGKGLEWVARIFPGGDNTYYNEKFKGRFTLSADTSKSTAYLQMNSLRAEDTAVYYCARRGLYYAMDYWGQGTLVTVSS
VL: DIQMTQSPSSLSASVGDRVTITCRSSQSLVHSNGIPYLHWYQQKPGKAPKLLIYRVSNRFSGVPSRFSGSGSGTDFTLTISSLQPEDFATYYCSQSTHVPPTFGQGTKVEIK
notes: as for B6

binding result: binds
B20: tilvestamab scFv-osmY Y191A (scFv, V domains shown)
VH: EVQLVESGGGLVQPGGSLRLSCAASGYSFTDFYINWVRQAPGKGLEWVARIFPGGDNTYYNEKFKGRFTLSADTSKSTAYLQMNSLRAEDTAVYYCARRGLYYAMDYWGQGTLVTVSS
VL: DIQMTQSPSSLSASVGDRVTITCRSSQSLVHSNGIPYLHWYQQKPGKAPKLLIARVSNRFSGVPSRFSGSGSGTDFTLTISSLQPEDFATYYCSQGTHVPPTFGQGTKVEIK
notes: as for B6

binding result: binds
B21: tilvestamab scFv-osmY L102Y (scFv, V domains shown)
VH: EVQLVESGGGLVQPGGSLRLSCAASGYSFTDFYINWVRQAPGKGLEWVARIFPGGDNTYYNEKFKGRFTLSADTSKSTAYLQMNSLRAEDTAVYYCARRGYYYAMDYWGQGTLVTVSS
VL: DIQMTQSPSSLSASVGDRVTITCRSSQSLVHSNGIPYLHWYQQKPGKAPKLLIYRVSNRFSGVPSRFSGSGSGTDFTLTISSLQPEDFATYYCSQGTHVPPTFGQGTKVEIK
notes: as for B2

Reference: paper PMC12784346, “Paratope mapping of tilvestamab, an anti-AXL function-blocking antibody, using high-throughput bacterial expression of secreted scFv-osmY fusion proteins” (Bioscience Reports, 2025)
